Measurements taken from publication doi:10.1101/2025.07.03.663104.

Target: OsPR5-His (rice (Oryza sativa)) (UniProt P31110)
Experiment: BLI

OsPR5-His (rice (Oryza sativa)), sequence (P31110 27-177): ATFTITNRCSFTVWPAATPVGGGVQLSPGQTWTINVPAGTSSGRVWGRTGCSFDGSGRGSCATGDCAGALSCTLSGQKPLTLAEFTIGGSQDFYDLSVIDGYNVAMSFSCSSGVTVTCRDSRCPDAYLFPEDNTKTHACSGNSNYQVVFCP

Substance | Kd [nM]
GBP-His (natural protein) | 0.745
ThBP15k (recombinant, no tag named) (natural protein) | 25.9
